In ChEMBL document CHEMBL1138864, “Synthesis of novel caspase inhibitors for characterization of the active caspase proteome in vitro and in vivo” (J Med Chem, 2006):

Key:
Conditions in all cases: Homo sapiens
[1] = substrate: Cc1cccc(C)c1C(=O)OCC(=O)[C@H](CC(=O)O)NC(=O)[C@H](CCCCNC(=O)CCCCCNC(=O)CCCCC1SC[C@@H]2NC(=O)N[C@H]12)NC(=O)[C@H](CCC(=O)O)NC(=O)OCc1ccccc1
Description: Inhibition of human caspase 7

[2] = substrate: Cc1cccc(C)c1C(=O)OCC(=O)[C@H](CC(=O)O)NC(=O)[C@H](CCCCNC(=O)CCCCCNC(=O)CCCCC1SC[C@@H]2NC(=O)N[C@H]12)NC(=O)[C@H](CCC(=O)O)NC(=O)OCc1ccccc1; remark: listed apart in the source
Description: Inhibition of human caspase 2

[3] = substrate: Cc1cccc(C)c1C(=O)OCC(=O)[C@H](CC(=O)O)NC(=O)[C@H](CCCCNC(=O)CCCCCNC(=O)CCCCC1SC[C@@H]2NC(=O)N[C@H]12)NC(=O)[C@H](CCC(=O)O)NC(=O)OCc1ccccc1; remark: listed apart in the source
Description: Inhibition of human caspase 5

[4] = substrate: Cc1cccc(C)c1C(=O)OCC(=O)[C@H](CC(=O)O)NC(=O)[C@H](CCCCNC(=O)CCCCCNC(=O)CCCCC1SC[C@@H]2NC(=O)N[C@H]12)NC(=O)[C@H](CCC(=O)O)NC(=O)OCc1ccccc1; remark: listed apart in the source
Description: Inhibition of human caspase 1

[5] = substrate: Cc1cccc(C)c1C(=O)OCC(=O)[C@H](CC(=O)O)NC(=O)[C@H](CCCCNC(=O)CCCCCNC(=O)CCCCC1SC[C@@H]2NC(=O)N[C@H]12)NC(=O)[C@H](CCC(=O)O)NC(=O)OCc1ccccc1; remark: listed apart in the source
Description: Inhibition of human caspase 8

[6] = substrate: Cc1cccc(C)c1C(=O)OCC(=O)[C@H](CC(=O)O)NC(=O)[C@H](CCCCNC(=O)CCCCCNC(=O)CCCCC1SC[C@@H]2NC(=O)N[C@H]12)NC(=O)[C@H](CCC(=O)O)NC(=O)OCc1ccccc1; remark: listed apart in the source
Description: Inhibition of human caspase 3

[7] = substrate: Cc1cccc(C)c1C(=O)OCC(=O)[C@H](CC(=O)O)NC(=O)[C@H](CCCCNC(=O)CCCCCNC(=O)CCCCC1SC[C@@H]2NC(=O)N[C@H]12)NC(=O)[C@H](CCC(=O)O)NC(=O)OCc1ccccc1; remark: listed apart in the source
Description: Inhibition of human caspase 6

[8] = substrate: Cc1cccc(C)c1C(=O)OCC(=O)[C@H](CC(=O)O)NC(=O)[C@H](CCCCNC(=O)CCCCCNC(=O)CCCCC1SC[C@@H]2NC(=O)N[C@H]12)NC(=O)[C@H](CCC(=O)O)NC(=O)OCc1ccccc1; remark: listed apart in the source
Description: Inhibition of human caspase 4

B1: Caspase-7 (Homo sapiens), P55210 (protein)
chain: MADDQGCIEEQGVEDSANEDSVDAKPDRSSFVPSLFSKKKKNVTMRSIKTTRDRVPTYQYNMNFEKLGKCIIINNKNFDKVTGMGVRNGTDKDAEALFKCFRSLGFDVIVYNDCSCAKMQDLLKKASEEDHTNAACFACILLSHGEENVIYGKDGVTPIKDLTAHFRGDRCKTLLEKPKLFFIQACRGTELDDGIQADSGPINDTDANPRYKIPVEADFLFAYSTVPGYYSWRSPGRGSWFVQALCSILEEHGKDLEIMQILTRVNDRVARHFESQSDDPHFHEKKQIPCVVSMLTKELYFSQ
[1]
  Km: 230 µM

B2: Caspase-2 (Homo sapiens), P42575 (protein)
chain: MAAPSAGSWSTFQHKELMAADRGRRILGVCGMHPHHQETLKKNRVVLAKQLLLSELLEHLLEKDIITLEMRELIQAKVGSFSQNVELLNLLPKRGPQAFDAFCEALRETKQGHLEDMLLTTLSGLQHVLPPLSCDYDLSLPFPVCESCPLYKKLRLSTDTVEHSLDNKDGPVCLQVKPCTPEFYQTHFQLAYRLQSRPRGLALVLSNVHFTGEKELEFRSGGDVDHSTLVTLFKLLGYDVHVLCDQTAQEMQEKLQNFAQLPAHRVTDSCIVALLSHGVEGAIYGVDGKLLQLQEVFQLFDNANCPSLQNKPKMFFIQACRGDETDRGVDQQDGKNHAGSPGCEESDAGKEKLPKMRLPTRSDMICGYACLKGTAAMRNTKRGSWYIEALAQVFSERACDMHVADMLVKVNALIKDREGYAPGTEFHRCKEMSEYCSTLCRHLYLFPGHPPT
[2]
  Km: 560 µM

B3: Caspase-5 (Homo sapiens), P51878 (protein)
chain: MAEDSGKKKRRKNFEAMFKGILQSGLDNFVINHMLKNNVAGQTSIQTLVPNTDQKSTSVKKDNHKKKTVKMLEYLGKDVLHGVFNYLAKHDVLTLKEEEKKKYYDTKIEDKALILVDSLRKNRVAHQMFTQTLLNMDQKITSVKPLLQIEAGPPESAESTNILKLCPREEFLRLCKKNHDEIYPIKKREDRRRLALIICNTKFDHLPARNGAHYDIVGMKRLLQGLGYTVVDEKNLTARDMESVLRAFAARPEHKSSDSTFLVLMSHGILEGICGTAHKKKKPDVLLYDTIFQIFNNRNCLSLKDKPKVIIVQACRGEKHGELWVRDSPASLALISSQSSENLEADSVCKIHEEKDFIAFCSSTPHNVSWRDRTRGSIFITELITCFQKYSCCCHLMEIFRKVQKSFEVPQAKAQMPTIERATLTRDFYLFPGN
[3]
  Km: 2500 µM

B4: Caspase-1 (Homo sapiens), P29466 (protein)
chain: MADKVLKEKRKLFIRSMGEGTINGLLDELLQTRVLNKEEMEKVKRENATVMDKTRALIDSVIPKGAQACQICITYICEEDSYLAGTLGLSADQTSGNYLNMQDSQGVLSSFPAPQAVQDNPAMPTSSGSEGNVKLCSLEEAQRIWKQKSAEIYPIMDKSSRTRLALIICNEEFDSIPRRTGAEVDITGMTMLLQNLGYSVDVKKNLTASDMTTELEAFAHRPEHKTSDSTFLVFMSHGIREGICGKKHSEQVPDILQLNAIFNMLNTKNCPSLKDKPKVIIIQACRGDSPGVVWFKDSVGVSGNLSLPTTEEFEDDAIKKAHIEKDFIAFCSSTPDNVSWRHPTMGSVFIGRLIEHMQEYACSCDVEEIFRKVRFSFEQPDGRAQMPTTERVTLTRCFYLFPGH
[4]
  Km: 100 µM

B5: Caspase-8 (Homo sapiens), Q14790 (protein)
chain: MDFSRNLYDIGEQLDSEDLASLKFLSLDYIPQRKQEPIKDALMLFQRLQEKRMLEESNLSFLKELLFRINRLDLLITYLNTRKEEMERELQTPGRAQISAYRVMLYQISEEVSRSELRSFKFLLQEEISKCKLDDDMNLLDIFIEMEKRVILGEGKLDILKRVCAQINKSLLKIINDYEEFSKERSSSLEGSPDEFSNGEELCGVMTISDSPREQDSESQTLDKVYQMKSKPRGYCLIINNHNFAKAREKVPKLHSIRDRNGTHLDAGALTTTFEELHFEIKPHDDCTVEQIYEILKIYQLMDHSNMDCFICCILSHGDKGIIYGTDGQEAPIYELTSQFTGLKCPSLAGKPKVFFIQACQGDNYQKGIPVETDSEEQPYLEMDLSSPQTRYIPDEADFLLGMATVNNCVSYRNPAEGTWYIQSLCQSLRERCPRGDDILTILTEVNYEVSNKDDKKNMGKQMPQPTFTLRKKLVFPSD
[5]
  Km: 140 µM

B6: Caspase-3 (Homo sapiens), P42574 (protein)
chain: MENTENSVDSKSIKNLEPKIIHGSESMDSGISLDNSYKMDYPEMGLCIIINNKNFHKSTGMTSRSGTDVDAANLRETFRNLKYEVRNKNDLTREEIVELMRDVSKEDHSKRSSFVCVLLSHGEEGIIFGTNGPVDLKKITNFFRGDRCRSLTGKPKLFIIQACRGTELDCGIETDSGVDDDMACHKIPVEADFLYAYSTAPGYYSWRNSKDGSWFIQSLCAMLKQYADKLEFMHILTRVNRKVATEFESFSFDATFHAKKQIPCIVSMLTKELYFYH
[6]
  Km: 74 µM

B7: Caspase-6 (Homo sapiens), P55212 (protein)
chain: MSSASGLRRGHPAGGEENMTETDAFYKREMFDPAEKYKMDHRRRGIALIFNHERFFWHLTLPERRGTCADRDNLTRRFSDLGFEVKCFNDLKAEELLLKIHEVSTVSHADADCFVCVFLSHGEGNHIYAYDAKIEIQTLTGLFKGDKCHSLVGKPKIFIIQACRGNQHDVPVIPLDVVDNQTEKLDTNITEVDAASVYTLPAGADFLMCYSVAEGYYSHRETVNGSWYIQDLCEMLGKYGSSLEFTELLTLVNRKVSQRRVDFCKDPSAIGKKQVPCFASMLTKKLHFFPKSN
[7]
  Km: 220 µM

B8: Caspase-4 (Homo sapiens), P49662 (protein)
chain: MAEGNHRKKPLKVLESLGKDFLTGVLDNLVEQNVLNWKEEEKKKYYDAKTEDKVRVMADSMQEKQRMAGQMLLQTFFNIDQISPNKKAHPNMEAGPPESGESTDALKLCPHEEFLRLCKERAEEIYPIKERNNRTRLALIICNTEFDHLPPRNGADFDITGMKELLEGLDYSVDVEENLTARDMESALRAFATRPEHKSSDSTFLVLMSHGILEGICGTVHDEKKPDVLLYDTIFQIFNNRNCLSLKDKPKVIIVQACRGANRGELWVRDSPASLEVASSQSSENLEEDAVYKTHVEKDFIAFCSSTPHNVSWRDSTMGSIFITQLITCFQKYSWCCHLEEVFRKVQQSFETPRAKAQMPTIERLSMTRYFYLFPGN
[8]
  Km: 1100 µM
